Results from patent US6468985B1, “Retinoblastoma protein-interacting zinc finger proteins” (The Burnham Institute, priority 1994, dated 2002).

Tests used:
[1] = molecular target: T1, Rb from HT1080 cell extract (Homo sapiens, UniProt P06400); test: GST-RIZ (215-462) glutathione-agarose pull-down of Rb from cell extract, anti-Rb immunoblot; assay type: binding; details: cell lysate from 293 stably transfected to express E1A as source
T1 construct: endogenous in cells; host or cells: HT1080 cells (lysate)
T1 sequence (P06400 1-928): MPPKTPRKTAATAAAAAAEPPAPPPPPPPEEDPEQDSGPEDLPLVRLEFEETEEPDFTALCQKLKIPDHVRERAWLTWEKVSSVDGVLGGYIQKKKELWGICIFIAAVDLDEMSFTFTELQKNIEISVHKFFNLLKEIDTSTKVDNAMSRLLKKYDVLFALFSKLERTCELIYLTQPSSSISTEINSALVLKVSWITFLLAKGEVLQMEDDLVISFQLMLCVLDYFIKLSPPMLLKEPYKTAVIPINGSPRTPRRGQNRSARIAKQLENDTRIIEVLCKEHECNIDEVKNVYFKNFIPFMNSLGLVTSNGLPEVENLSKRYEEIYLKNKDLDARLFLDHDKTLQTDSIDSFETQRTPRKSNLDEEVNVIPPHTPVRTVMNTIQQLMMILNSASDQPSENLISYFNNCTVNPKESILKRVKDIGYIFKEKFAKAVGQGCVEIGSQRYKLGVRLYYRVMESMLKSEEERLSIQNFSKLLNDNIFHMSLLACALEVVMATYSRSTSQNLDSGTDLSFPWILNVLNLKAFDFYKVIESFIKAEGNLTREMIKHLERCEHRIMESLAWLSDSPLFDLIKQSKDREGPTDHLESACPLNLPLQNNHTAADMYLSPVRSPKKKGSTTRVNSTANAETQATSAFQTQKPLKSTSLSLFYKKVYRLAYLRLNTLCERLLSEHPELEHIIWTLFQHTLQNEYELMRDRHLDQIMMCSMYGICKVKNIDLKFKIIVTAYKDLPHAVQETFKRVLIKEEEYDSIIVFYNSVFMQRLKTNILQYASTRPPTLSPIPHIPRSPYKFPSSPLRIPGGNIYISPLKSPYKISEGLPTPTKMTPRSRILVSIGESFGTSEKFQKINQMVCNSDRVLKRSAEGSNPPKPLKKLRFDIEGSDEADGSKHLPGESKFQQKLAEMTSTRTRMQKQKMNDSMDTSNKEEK
Description: Rat RIZ was tested for binding to Rb in HT1080 cells (ATCC #ICCL 121). The cells were grown in DMEM supplemented with […]. Cells were lysed in ELB buffer (50 mM HEPES, pH 7.5, 250 mM NaCl, 0.1% NP-40) supplemented with 5 mM EDTA, 50 mM NaF, 1 mM Na orthovanadate, 1 mM of DTT, aprotinin, leupeptin, and PMSF. The lysate was cleared of cell debris by centrifugation at 12,000 rpm for 10 min in a microfuge.
Binding between 4 μg GST-RIZ (215-462) and Rb from HT1080 cell extract was evaluated by first mixing the two, then binding GST-RIZ and any associated Rb to glutathione-agarose beads. The beads were washed in binding buffer and the bound complexes were eluted by boiling in SDS buffer and analyzed by immunoblotting with anti-Rb antiserum. Immunoblotting was performed by standard techniques (see, for example, Harlow and Lane, supra, 1988).

[2] = molecular target: T2, RIZ GTPase domain (GST-G) (Rattus norvegicus, UniProt Q63755); test: competition of unlabeled nucleotides for GTP binding of RIZ GTPase domain; details: 20 mM unlabeled nucleotide, 1 hr before α-32P-GTP
T2 construct: a fragment of RIZ from amino acid position 760-949 (RIZ 760-949), containing the putative GTPase domain; made in house; E. coli XL-1 blue is printed only for pKG7.1S)
T2 sequence (Q63755 760-949): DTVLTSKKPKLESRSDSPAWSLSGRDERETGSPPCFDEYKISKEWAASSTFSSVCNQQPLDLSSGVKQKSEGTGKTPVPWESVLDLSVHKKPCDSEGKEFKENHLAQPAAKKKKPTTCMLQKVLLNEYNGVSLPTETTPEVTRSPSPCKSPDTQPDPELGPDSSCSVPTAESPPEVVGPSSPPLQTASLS
Description: The GTPase domain of RIZ, which was defined by sequence homology, was evaluated to determine if it was functionally active. For these studies, a fragment of RIZ from amino acid position 760-949 (RIZ 760-949), containing the putative GTPase domain was expressed as a fusion to GST from the plasmid pKG-G and tested for binding to radiolabeled nucleotides. pKG-G was produced by PCR amplification of the nucleotide sequence encoding RIZ (760-949) using primers 5′-TCTCCACAGC ACAGCCCT-3′ (SEQ ID NO: 15), and 5′-GGATAAGGAG GCTGTCTG-3′ (SEQ ID NO: 16) and PCMVRIZ as template. The fragment was cloned into pBSK+ and then into PGEX-KG, expressed and purified by glutathionine-agarose as described above. GST was also expressed from vector PGEX-KG and purified as described above.
To measure GTP-binding, 0.5 μg of GST-RIZ or control GST proteins were separated by SDS-PAGE and blotted onto nitrocellulose. Proteins were renatured in GTP-binding buffer (50 mM Tris-HCl, pH8, 100 mM KCl, 10% glycerol, 0.1% Triton X-100, and 2 mM […]). The nitrocellulose was incubated for 30 min in GTP-binding buffer and then for 2 hr in GTP-binding buffer containing 1 μM α-^32P-GTP (800 Ci/mmol). The nitrocellulose was washed 5 times in GTP-binding buffer, dried and autoradiographed. In some samples, 20 mM unlabeled nucleotides were incubated with the nitrocellulose for 1 hr prior to the addition of α-^32P-GTP.

[3] = molecular target: T3, 56 kD fragment of Rb produced by bacterial expression from p56Rb plasmid (UniProt P06400 379-928); test: peptide competition against labeled RIZ (1-575) for 56 kD Rb
T3 construct: range 379-928; Expressed in E. coli; also called 56 kD Rb
T3 sequence (looked up): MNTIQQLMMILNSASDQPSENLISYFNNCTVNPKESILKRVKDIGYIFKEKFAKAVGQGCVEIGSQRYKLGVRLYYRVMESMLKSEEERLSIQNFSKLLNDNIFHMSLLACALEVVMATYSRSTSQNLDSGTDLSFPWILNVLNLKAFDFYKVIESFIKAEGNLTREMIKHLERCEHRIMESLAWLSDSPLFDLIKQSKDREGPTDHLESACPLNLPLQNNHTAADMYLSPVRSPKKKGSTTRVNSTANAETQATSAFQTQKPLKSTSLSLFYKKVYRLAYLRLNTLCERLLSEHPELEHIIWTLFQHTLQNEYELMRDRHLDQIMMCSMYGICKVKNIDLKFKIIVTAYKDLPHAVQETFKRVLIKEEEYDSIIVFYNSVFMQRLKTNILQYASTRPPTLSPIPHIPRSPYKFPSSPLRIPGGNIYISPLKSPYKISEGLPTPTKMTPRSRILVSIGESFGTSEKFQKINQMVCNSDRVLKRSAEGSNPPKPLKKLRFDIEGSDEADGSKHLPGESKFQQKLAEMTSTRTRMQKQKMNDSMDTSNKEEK

[4] = molecular target: T4, wild-type full length Rb (A9), 35S-labeled (UniProt P06400 2-928, limits assumed, 35S label); test: preformed complex tested with anti-ce1
T4 construct: mature; also called wt-Rb; wild-type Rb
T4 sequence (looked up): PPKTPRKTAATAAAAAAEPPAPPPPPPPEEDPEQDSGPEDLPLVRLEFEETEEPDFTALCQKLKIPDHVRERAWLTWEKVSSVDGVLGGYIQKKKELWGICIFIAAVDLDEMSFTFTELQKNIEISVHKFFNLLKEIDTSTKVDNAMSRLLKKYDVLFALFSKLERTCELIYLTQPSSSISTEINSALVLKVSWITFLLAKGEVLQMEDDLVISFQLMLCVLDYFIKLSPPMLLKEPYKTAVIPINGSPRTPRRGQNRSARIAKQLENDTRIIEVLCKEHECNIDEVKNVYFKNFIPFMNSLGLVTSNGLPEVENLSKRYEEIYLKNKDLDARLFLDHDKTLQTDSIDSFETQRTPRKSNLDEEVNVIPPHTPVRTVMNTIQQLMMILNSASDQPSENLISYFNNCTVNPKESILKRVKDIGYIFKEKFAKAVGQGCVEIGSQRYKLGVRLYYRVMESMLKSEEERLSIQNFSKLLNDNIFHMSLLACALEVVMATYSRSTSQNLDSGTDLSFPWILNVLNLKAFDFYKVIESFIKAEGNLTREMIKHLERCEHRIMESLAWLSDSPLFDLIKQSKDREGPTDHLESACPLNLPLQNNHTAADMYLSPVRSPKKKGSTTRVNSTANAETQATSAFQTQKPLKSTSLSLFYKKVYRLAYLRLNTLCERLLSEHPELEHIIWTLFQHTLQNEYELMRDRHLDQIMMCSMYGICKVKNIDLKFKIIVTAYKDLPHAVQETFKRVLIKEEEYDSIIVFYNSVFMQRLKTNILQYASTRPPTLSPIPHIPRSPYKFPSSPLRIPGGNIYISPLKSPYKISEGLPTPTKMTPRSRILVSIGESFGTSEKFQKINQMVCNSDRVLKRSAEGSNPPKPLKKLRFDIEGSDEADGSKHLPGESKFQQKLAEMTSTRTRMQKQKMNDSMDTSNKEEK

[5] = molecular target: T4, wild-type full length Rb (A9), …; test: immunoprecipitation with anti-RIZ antiserum, SDS-PAGE, autoradiography
[6] = molecular target: T4, wild-type full length Rb (A9), …; test: 35S-labeled full-length Rb preincubated with RIZ (215-462), immunoprecipitated with anti-ce1

Which “inhibition of binding of GST-RIZ (215-462) to hypophosphorylated Rb” value [1] does the source give for “E1A: adenoviral E1A protein; source was cell lysate from 293 stably transfected to express E1A [reference compound]” here?
The value was “inhibited binding”.

For `Nc1ccn([C@@H]2O[C@H](COP(=O)(O)OP(=O)(O)OP(=O)(O)O)[C@@H](O)[C@H]2O)c(=O)n1` [CTP], which “effect of excess unlabeled nucleotide on binding of RIZ GTPase to radiolabeled GTP” value (from here on “effect of excess unlabeled nucleotide”) [2] is on record?
Its value is “did not effect binding”.

For `Nc1nc2c(ncn2[C@@H]2O[C@H](COP(=O)(O)OP(=O)(O)OP(=O)(O)O)[C@@H](O)[C@H]2O)c(=O)[nH]1` [GTP], which “effect of excess unlabeled nucleotide” value [2] is on record?
Its value is “inhibited binding”.

Which “effect of excess unlabeled nucleotide” value [2] does the source give for `Nc1ncnc2c1ncn2[C@@H]1O[C@H](COP(=O)(O)OP(=O)(O)OP(=O)(O)O)[C@@H](O)[C@H]1O` [ATP] here?
Its value is “did not effect binding”.

Which “effect of excess unlabeled nucleotide” value [2] does the source give for `O=c1ccn([C@@H]2O[C@H](COP(=O)(O)OP(=O)(O)OP(=O)(O)O)[C@@H](O)[C@H]2O)c(=O)[nH]1` [UTP] here?
Its value is “did not effect binding”.

B1: RIZ-Pep, 11 amino acid peptide EIRCEEKPEDL representing a portion of the cr2 motif of RIZ (peptide)
peptide: EIRCEEKPEDL
notes: Synthetic peptide; also called cr2 peptide
Does B1 bind [3]?
Result: binds

B2: 35S labeled fragment of RIZ from amino acid position 1-575 (other)
chain: MHQNTESVAATETLAEVPEHVLRGLPEEVRLFPSAVDKTRIGVWATKPILKGKKFGPFVGDKKKRSQVRNNVYMWEVYYPNLGWMCIDATDPEKGNWLRYVNWACSGEEQNLFPLEINRAIYYKTLKPIAPGEELLVWYNGEDNPEIAAAIEEERASARSKRSSPKSRRGKKKSHENKNKGIRTHPTQLKASELDSTFANMRGSAEGPKEEDERPLASAPEQPAPLPEVGNQDAVPQVAIPLPACEPQPEVDGKQEVTDCEVNDVEEEELEEEEELEEEEEEELGEDGVEEADMPNESSAKEPEIRCEEKPEDLLEEPQSMSNEAREDSPDVTPPPHTPRAREEANGDVLETFMFPCQHCERKFATKQGLERHMHIHISTINHAFKCKYCGKRFGTQINRRRHERRHETGLKRRPSMTLQSSEDPDDGKGENVTSKDESSPPQLGQDCLILNSEKTSQEVLNSSFVEENGEVKELHPCKYCKKVFGTHTNMRRHQRRVHERHLIPKGVRRKGGLLEEPQPPAEQAPPSQNVYVPSTEPEEEGETDDVYIMDISSNISENLNYYIDGKIQTNSSTS
modifications: 35S label
notes: In vitro transcribed/translated from Spe I linearized template
Does B2 bind [4]?
Result: binds

B3: glutathionine S-transferase (GST) fused to a fragment of RIZ from amino acid position 245-573 (other)
chain: CEPQPEVDGKQEVTDCEVNDVEEEELEEEEELEEEEEEELGEDGVEEADMPNESSAKEPEIRCEEKPEDLLEEPQSMSNEAREDSPDVTPPPHTPRAREEANGDVLETFMFPCQHCERKFATKQGLERHMHIHISTINHAFKCKYCGKRFGTQINRRRHERRHETGLKRRPSMTLQSSEDPDDGKGENVTSKDESSPPQLGQDCLILNSEKTSQEVLNSSFVEENGEVKELHPCKYCKKVFGTHTNMRRHQRRVHERHLIPKGVRRKGGLLEEPQPPAEQAPPSQNVYVPSTEPEEEGETDDVYIMDISSNISENLNYYIDGKIQTNSS
notes: Expressed from pKG7.1S in E. coli and purified on glutathione agarose; also called GSTZ13; not shown: glutathione S-transferase from vector pGEX-KG
Does B3 bind [5]?
Result: binds

B4: RIZ (215-462) with the GST portion removed by thrombin cleavage (other)
chain: PLASAPEQPAPLPEVGNQDAVPQVAIPLPACEPQPEVDGKQEVTDCEVNDVEEEELEEEEELEEEEEEELGEDGVEEADMPNESSAKEPEIRCEEKPEDLLEEPQSMSNEAREDSPDVTPPPHTPRAREEANGDVLETFMFPCQHCERKFATKQGLERHMHIHISTINHAFKCKYCGKRFGTQINRRRHERRHETGLKRRPSMTLQSSEDPDDGKGENVTSKDESSPPQLGQDCLILNSEKTSQEVLN
Does B4 bind [6]?
Result: binds
